Non-standard residues stand in square brackets, D forms with d. No end group written: not given here. pT = C[C@@H](OP(=O)(O)O)[C@H](N)C(=O)O; FAM = 5,6-carboxyfluorescein
Biological target: T1, Rtt103p CID Q19A (Saccharomyces cerevisiae)
T1 chain: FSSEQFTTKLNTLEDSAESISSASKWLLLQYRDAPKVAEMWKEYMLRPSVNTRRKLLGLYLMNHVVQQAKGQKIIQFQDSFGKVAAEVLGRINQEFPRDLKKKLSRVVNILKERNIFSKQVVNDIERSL
Assay: FP

B1: FAM-PSYSP(pT)SPSYSPTSPS (peptide)
peptide: {FAM}-PSYSP[pT]SPSYSPTSPS
  Kd: 48 µM
